# Reference: paper doi:10.1101/2021.08.20.457142
# B1: MKK6 D-site peptide / p38-alpha (MAPK14) L195A, full length (parent complex)
# chain 1: SQSKGKKRNPGLKIPKEAFEQP
# chain 2: MSQERPTFYRQELNKTVWEVPERYQNLSPVGSGAYGSVCAAFDTKTGHRVAVKKLSRPFQSIIHAKRTYRELRLLKHMKHENVIGLLDVFTPARSLEEFNDVYLVTHLMGADLNNIVKCQKLTDDHVQFLIYQILRGLKYIHSADIIHRDLKPSNLAVNEDCELKILDFGLARHTDDEMTGYVATRWYRAPEIMANWMHYNQTVDIWSVGCIMAELLTGRTLFPGTDHIDQLKLILRLVGTPGAELLKKISSESARNYIQSLAQMPKMNFANVFIGANPLAVDLLEKMLVLDSDKRITAAQALAHAYFAQYHDPDDEPVAEPYDQSFESRDFLIDEWKSLTYDEVISFVPPPLDQEEMES
# Variants of: B1
row,screen value,Variant
1,0.57 Z-score of the enrichment rate within one screen of 711 sequences,"chain 1 SQAKGAKRNPGLKIPKEAFEQP [chain 1 S3A, chain 1 K6A]"
2,-0.0905 Z-score of the enrichment rate within one screen of 711 sequences,"chain 1 SQSAGKKRNAGLKIPKEAFEQP [chain 1 K4A, chain 1 P10A]"
3,0.134 Z-score of the enrichment rate within one screen of 711 sequences,chain 1 SQSKGKKRNPGLKIPSEAFEQP [chain 1 K16S]
4,0.506 Z-score of the enrichment rate within one screen of 711 sequences,chain 1 SQSKGKKRNPGLKIPFEAFEQP [chain 1 K16F]
5,0.315 Z-score of the enrichment rate within one screen of 711 sequences,chain 1 SQSKGKKRNPGLKIPHEAFEQP [chain 1 K16H]
6,-0.296 Z-score of the enrichment rate within one screen of 711 sequences,"chain 1 SQAKGKKANPGLKIPKEAFEQP [chain 1 S3A, chain 1 R8A]"
7,-0.245 Z-score of the enrichment rate within one screen of 711 sequences,"chain 1 SQSKGAKRAPGLKIPKEAFEQP [chain 1 K6A, chain 1 N9A]"
8,0.354 Z-score of the enrichment rate within one screen of 711 sequences,"chain 1 SQSKAKKRNAGLKIPKEAFEQP [chain 1 G5A, chain 1 P10A]"
9,-1.08 Z-score of the enrichment rate within one screen of 711 sequences,"chain 1 SQSKGKKRNPGAAIPKEAFEQP [chain 1 L12A, chain 1 K13A]"
10,-0.694 Z-score of the enrichment rate within one screen of 711 sequences,"chain 1 SQSKGKAANPGLKIPKEAFEQP [chain 1 K7A, chain 1 R8A]"
11,0.816 Z-score of the enrichment rate within one screen of 711 sequences,chain 1 SQSKGKKRNPWLKIPKEAFEQP [chain 1 G11W]
12,1.22 Z-score of the enrichment rate within one screen of 711 sequences,chain 1 SQSKGKKRNPTLKIPKEAFEQP [chain 1 G11T]
13,0.286 Z-score of the enrichment rate within one screen of 711 sequences,chain 1 SQSKGKKRNPELKIPKEAFEQP [chain 1 G11E]
14,0.58 Z-score of the enrichment rate within one screen of 711 sequences,chain 1 SQSKGKKRNPILKIPKEAFEQP [chain 1 G11I]
15,-0.243 Z-score of the enrichment rate within one screen of 711 sequences,"chain 1 SQSKGKKRNPGLKAPAEAFEQP [chain 1 I14A, chain 1 K16A]"
16,0.627 Z-score of the enrichment rate within one screen of 711 sequences,chain 1 SQSKGKKRNPGLKIWKEAFEQP [chain 1 P15W]
17,3.1 Z-score of the enrichment rate within one screen of 711 sequences,chain 1 SQSKGKKRNPGLKIVKEAFEQP [chain 1 P15V]
18,0.934 Z-score of the enrichment rate within one screen of 711 sequences,chain 1 SQSKGKKRNPGLKIDKEAFEQP [chain 1 P15D]
19,1.18 Z-score of the enrichment rate within one screen of 711 sequences,chain 1 SQSKGKKRNPGLKIHKEAFEQP [chain 1 P15H]
20,1.84 Z-score of the enrichment rate within one screen of 711 sequences,chain 1 SQSKGKKRNPGLKIMKEAFEQP [chain 1 P15M]
21,2.36 Z-score of the enrichment rate within one screen of 711 sequences,chain 1 SQSKGKKRNPGLKISKEAFEQP [chain 1 P15S]
22,1.61 Z-score of the enrichment rate within one screen of 711 sequences,chain 1 SQSKGKKRNPGLKIIKEAFEQP [chain 1 P15I]

row,screen value,Variant
1,0.802 Z-score of the enrichment rate within one screen of 711 sequences,chain 1 SQSKGKKRNIGLKIPKEAFEQP [chain 1 P10I]
2,0.591 Z-score of the enrichment rate within one screen of 711 sequences,chain 1 SQSKGKKRNKGLKIPKEAFEQP [chain 1 P10K]
3,0.417 Z-score of the enrichment rate within one screen of 711 sequences,chain 1 SQSKGKKRNQGLKIPKEAFEQP [chain 1 P10Q]
4,1.57 Z-score of the enrichment rate within one screen of 711 sequences,chain 1 SQSKGKKRNHGLKIPKEAFEQP [chain 1 P10H]
5,1.04 Z-score of the enrichment rate within one screen of 711 sequences,chain 1 SQSKGKKRNRGLKIPKEAFEQP [chain 1 P10R]
6,1.13 Z-score of the enrichment rate within one screen of 711 sequences,"chain 1 SQSKAAKRNPGLKIPKEAFEQP [chain 1 G5A, chain 1 K6A]"
7,0.574 Z-score of the enrichment rate within one screen of 711 sequences,chain 1 SQSKGKYRNPGLKIPKEAFEQP [chain 1 K7Y]
8,1.02 Z-score of the enrichment rate within one screen of 711 sequences,chain 1 SQSKGKNRNPGLKIPKEAFEQP [chain 1 K7N]
9,2.22 Z-score of the enrichment rate within one screen of 711 sequences,chain 1 SQSKGKRRNPGLKIPKEAFEQP [chain 1 K7R]
10,0.69 Z-score of the enrichment rate within one screen of 711 sequences,chain 1 SQSKGKIRNPGLKIPKEAFEQP [chain 1 K7I]
11,0.368 Z-score of the enrichment rate within one screen of 711 sequences,chain 1 SQSKGKPRNPGLKIPKEAFEQP [chain 1 K7P]
12,0.386 Z-score of the enrichment rate within one screen of 711 sequences,"chain 1 SQSAGKKRAPGLKIPKEAFEQP [chain 1 K4A, chain 1 N9A]"
13,-0.373 Z-score of the enrichment rate within one screen of 711 sequences,"chain 1 SQSKGKKRNPGAKIAKEAFEQP [chain 1 L12A, chain 1 P15A]"
14,-0.353 Z-score of the enrichment rate within one screen of 711 sequences,"chain 1 SQSKAKKRNPGAKIPKEAFEQP [chain 1 G5A, chain 1 L12A]"
15,0.605 Z-score of the enrichment rate within one screen of 711 sequences,"chain 1 SQSAAKKRNPGLKIPKEAFEQP [chain 1 K4A, chain 1 G5A]"
16,0.905 Z-score of the enrichment rate within one screen of 711 sequences,"chain 1 SQSKAKKRNPGLKIPAEAFEQP [chain 1 G5A, chain 1 K16A]"
17,-1.04 Z-score of the enrichment rate within one screen of 711 sequences,"chain 1 SQSKGKKANPGLAIPKEAFEQP [chain 1 R8A, chain 1 K13A]"
18,1.47 Z-score of the enrichment rate within one screen of 711 sequences,"chain 1 SQSAGKKRNPGLKIAKEAFEQP [chain 1 K4A, chain 1 P15A]"
19,0.105 Z-score of the enrichment rate within one screen of 711 sequences,"chain 1 SQSKGKARAPGLKIPKEAFEQP [chain 1 K7A, chain 1 N9A]"
20,-0.884 Z-score of the enrichment rate within one screen of 711 sequences,"chain 1 SQSKGKKRNAGAKIPKEAFEQP [chain 1 P10A, chain 1 L12A]"
21,1.1 Z-score of the enrichment rate within one screen of 711 sequences,chain 1 SQSKGKKRMPGLKIPKEAFEQP [chain 1 N9M]
22,1.99 Z-score of the enrichment rate within one screen of 711 sequences,chain 1 SQSKGKKRWPGLKIPKEAFEQP [chain 1 N9W]

row,screen value,Variant
1,0.874 Z-score of the enrichment rate within one screen of 711 sequences,chain 1 SQSKGKKRQPGLKIPKEAFEQP [chain 1 N9Q]
2,0.56 Z-score of the enrichment rate within one screen of 711 sequences,chain 1 SQSKGKKRIPGLKIPKEAFEQP [chain 1 N9I]
3,2.03 Z-score of the enrichment rate within one screen of 711 sequences,"chain 1 SQAKAKKRNPGLKIPKEAFEQP [chain 1 S3A, chain 1 G5A]"
4,-0.96 Z-score of the enrichment rate within one screen of 711 sequences,"chain 1 SQSKGKKRAPGAKIPKEAFEQP [chain 1 N9A, chain 1 L12A]"
5,0.178 Z-score of the enrichment rate within one screen of 711 sequences,chain 1 SQSKGKKWNPGLKIPKEAFEQP [chain 1 R8W]
6,-0.0927 Z-score of the enrichment rate within one screen of 711 sequences,chain 1 SQSKGKKVNPGLKIPKEAFEQP [chain 1 R8V]
7,1.16 Z-score of the enrichment rate within one screen of 711 sequences,chain 1 SQSKGKKKNPGLKIPKEAFEQP [chain 1 R8K]
8,-0.0227 Z-score of the enrichment rate within one screen of 711 sequences,chain 1 SQSKGKKPNPGLKIPKEAFEQP [chain 1 R8P]
9,-0.189 Z-score of the enrichment rate within one screen of 711 sequences,chain 1 SQSKGKKQNPGLKIPKEAFEQP [chain 1 R8Q]
10,0.775 Z-score of the enrichment rate within one screen of 711 sequences,chain 1 SQSKGKKFNPGLKIPKEAFEQP [chain 1 R8F]
11,0.766 Z-score of the enrichment rate within one screen of 711 sequences,"chain 1 SQSKGKARNPGLKIAKEAFEQP [chain 1 K7A, chain 1 P15A]"
12,-0.342 Z-score of the enrichment rate within one screen of 711 sequences,"chain 1 SQSAGAKRNPGLKIPKEAFEQP [chain 1 K4A, chain 1 K6A]"
13,-1.19 Z-score of the enrichment rate within one screen of 711 sequences,chain 1 SQSKGKKRNPGQKIPKEAFEQP [chain 1 L12Q]
14,-0.0439 Z-score of the enrichment rate within one screen of 711 sequences,chain 1 SQSKGKKRNPGWKIPKEAFEQP [chain 1 L12W]
15,-0.618 Z-score of the enrichment rate within one screen of 711 sequences,chain 1 SQSKGKKRNPGCKIPKEAFEQP [chain 1 L12C]
16,-0.143 Z-score of the enrichment rate within one screen of 711 sequences,chain 1 SQSKGKKRNPGPKIPKEAFEQP [chain 1 L12P]
17,-1.09 Z-score of the enrichment rate within one screen of 711 sequences,chain 1 SQSKGKKRNPGYKIPKEAFEQP [chain 1 L12Y]
18,2.3 Z-score of the enrichment rate within one screen of 711 sequences,chain 1 SQRKGKKRNPGLKIPKEAFEQP [chain 1 S3R]
19,1.56 Z-score of the enrichment rate within one screen of 711 sequences,chain 1 SQHKGKKRNPGLKIPKEAFEQP [chain 1 S3H]
20,1.56 Z-score of the enrichment rate within one screen of 711 sequences,chain 1 SQAKGKKRNPGLKIPKEAFEQP [chain 1 S3A]
21,2.21 Z-score of the enrichment rate within one screen of 711 sequences,chain 1 SQMKGKKRNPGLKIPKEAFEQP [chain 1 S3M]
22,1.82 Z-score of the enrichment rate within one screen of 711 sequences,chain 1 SQYKGKKRNPGLKIPKEAFEQP [chain 1 S3Y]

row,screen value,Variant
1,1.64 Z-score of the enrichment rate within one screen of 711 sequences,chain 1 SQGKGKKRNPGLKIPKEAFEQP [chain 1 S3G]
2,1.81 Z-score of the enrichment rate within one screen of 711 sequences,chain 1 SQQKGKKRNPGLKIPKEAFEQP [chain 1 S3Q]
3,1.74 Z-score of the enrichment rate within one screen of 711 sequences,chain 1 SQTKGKKRNPGLKIPKEAFEQP [chain 1 S3T]
4,1.22 Z-score of the enrichment rate within one screen of 711 sequences,chain 1 SQSKGMKRNPGLKIPKEAFEQP [chain 1 K6M]
5,0.371 Z-score of the enrichment rate within one screen of 711 sequences,chain 1 SQSKGQKRNPGLKIPKEAFEQP [chain 1 K6Q]
6,0.469 Z-score of the enrichment rate within one screen of 711 sequences,chain 1 SQSKGYKRNPGLKIPKEAFEQP [chain 1 K6Y]
7,0.936 Z-score of the enrichment rate within one screen of 711 sequences,chain 1 SQSKGWKRNPGLKIPKEAFEQP [chain 1 K6W]
8,3.17 Z-score of the enrichment rate within one screen of 711 sequences,chain 1 SQSKRKKRNPGLKIPKEAFEQP [chain 1 G5R]
9,1.65 Z-score of the enrichment rate within one screen of 711 sequences,chain 1 SQSKPKKRNPGLKIPKEAFEQP [chain 1 G5P]
10,0.392 Z-score of the enrichment rate within one screen of 711 sequences,chain 1 SQSKEKKRNPGLKIPKEAFEQP [chain 1 G5E]
11,2 Z-score of the enrichment rate within one screen of 711 sequences,chain 1 SQSKYKKRNPGLKIPKEAFEQP [chain 1 G5Y]
12,2.27 Z-score of the enrichment rate within one screen of 711 sequences,chain 1 SQSKIKKRNPGLKIPKEAFEQP [chain 1 G5I]
13,0.213 Z-score of the enrichment rate within one screen of 711 sequences,chain 1 SQSKGKKRNPGLMIPKEAFEQP [chain 1 K13M]
14,-0.0639 Z-score of the enrichment rate within one screen of 711 sequences,chain 1 SQSKGKKRNPGLYIPKEAFEQP [chain 1 K13Y]
15,-0.188 Z-score of the enrichment rate within one screen of 711 sequences,chain 1 SQSKGKKRNPGLQIPKEAFEQP [chain 1 K13Q]
16,0.565 Z-score of the enrichment rate within one screen of 711 sequences,"chain 1 SQSAGKKRNPALKIPKEAFEQP [chain 1 K4A, chain 1 G11A]"
17,-1.19 Z-score of the enrichment rate within one screen of 711 sequences,chain 1 SQSKGKKRNPGLKYPKEAFEQP [chain 1 I14Y]
18,0.51 Z-score of the enrichment rate within one screen of 711 sequences,chain 1 SQSKGKKRNPGLKMPKEAFEQP [chain 1 I14M]
19,-1.31 Z-score of the enrichment rate within one screen of 711 sequences,chain 1 SQSKGKKRNPGLKRPKEAFEQP [chain 1 I14R]
20,-0.81 Z-score of the enrichment rate within one screen of 711 sequences,chain 1 SQSKGKKRNPGLKCPKEAFEQP [chain 1 I14C]
